In patent US8470599B2, “Renal progenitor cells from embryonic stem cells” (The Regents of the University of Michigan, priority 2005, dated 2013):

B1: bmp4: growth factor (R & D Systems) added to retinoic acid and activin-a treated EBs (protein, UniProt P12644 293-408, looked up)
Bone morphogenetic protein 4: SPKHHSQRARKKNKNCRRHSLYVDFSDVGWNDWIVAPPGYQAFYCHGDCPFPLADHLNSTNHAIVQTLVNSVNSSIPKACCVPTELSAISMLYLDEYDKVVLKNYQEMVVEGCGCR
B2: bmp-7: growth factor (R & D Systems), third component of the nephrogenic cocktail (protein, UniProt P18075 293-431, looked up)
Bone morphogenetic protein 7: STGSKQRSQNRSKTPKNQEALRMANVAENSSSDQRQACKKHELYVSFRDLGWQDWIIAPEGYAAYYCEGECAFPLNSYMNATNHAIVQTLVHFINPETVPKPCCAPTQLNAISVLYFDDSSNVILKKYRNMVVRACGCH

System: EB derived cells in E12.5 cultured kidney rudiments
Assay: Injection of EB derived cells into E12.5 cultured kidney rudiments, lacZ / laminin / LTA staining
Type: cell-based, mouse
Settings: for contribution to developing tubules: compared to untreated EB cells, rudiments 4 or 5 days after injection
Protocol: Cryosections from kidney rudiments were stained for lacZ expression (A & C) and with anti-laminin antibodies (B & D). […] C & D) Many lacZ positive cells from control EBs were found in large and small aggregates (arrows) that remained mesenchymal in appearance and were not surrounded by laminin containing basement membranes. Some blue cells from control EBs were also found in tubules. Magnification bars are 100 microns.
E12.5 kidney rudiments were injected with RA7 treated EB cells (A-F) or control EB cells (G & H) and stained for lacZ, laminin, and LTA binding. […] Arrows point to glomerular tufts. B) Laminin staining of same tissue as in A. C & D) Co-localization of lacZ positive cells in developing proximal tubules (arrows) that also stain with LTA lectin (green) and are surrounded by laminin containing basement membranes (red). E & F) Another developing proximal tubule derived from RA7 treated EB cells (arrow) stained as above. G & H) Many control EB cells localize to interstitial and peripheral mesenchyme (arrows), though a small number of lacZ positive cells are also found in tubules.
This example describes cell culture and microinjection techniques utilized in experiments conducted during the course of the present invention. Mouse ES cells (R26) were grown in high glucose DMEM (GIBCO BRL), 10% fetal bovine serum (Atlanta Biologicals), 0.1 mM β-mercaptoethanol (Sigma), 4 mM glutamine (GIBCO BRL), 20 unit/ml PEN/STREP (GIBCO BRL), 0.1 mg/ml G418 (GIBCO BRL), and 10^3 unit/ml rLIF (Chemicon) on a 0.1% gelatin-coated tissue culture plate at 37° C. CO2 incubator for 2 days. The ES cells were transferred using 0.05% trypsin plus 0.53 mM EDTA (GIBCO BRL) to a 100-mm bacteriological petri dish (Falcon) to induce embryoid body (EB) formation. The EB suspension was cultured in the same medium without rLIF for 2 days and then transferred to 60-mm tissue culture plates coated with 0.1% gelatin. Each 60-mm tissue culture plate contained about 100 EBs. […]

Molecule	ability of EB cells to contribute to tubules in vitro (addition of 100 ng/ml bmp4)	contribution to developing tubules
B1	completely inhibited	did not integrate
B2	–	enhanced
